T1: human TG2 (Homo sapiens, UniProt P21980)
T1 sequence (P21980 1-687): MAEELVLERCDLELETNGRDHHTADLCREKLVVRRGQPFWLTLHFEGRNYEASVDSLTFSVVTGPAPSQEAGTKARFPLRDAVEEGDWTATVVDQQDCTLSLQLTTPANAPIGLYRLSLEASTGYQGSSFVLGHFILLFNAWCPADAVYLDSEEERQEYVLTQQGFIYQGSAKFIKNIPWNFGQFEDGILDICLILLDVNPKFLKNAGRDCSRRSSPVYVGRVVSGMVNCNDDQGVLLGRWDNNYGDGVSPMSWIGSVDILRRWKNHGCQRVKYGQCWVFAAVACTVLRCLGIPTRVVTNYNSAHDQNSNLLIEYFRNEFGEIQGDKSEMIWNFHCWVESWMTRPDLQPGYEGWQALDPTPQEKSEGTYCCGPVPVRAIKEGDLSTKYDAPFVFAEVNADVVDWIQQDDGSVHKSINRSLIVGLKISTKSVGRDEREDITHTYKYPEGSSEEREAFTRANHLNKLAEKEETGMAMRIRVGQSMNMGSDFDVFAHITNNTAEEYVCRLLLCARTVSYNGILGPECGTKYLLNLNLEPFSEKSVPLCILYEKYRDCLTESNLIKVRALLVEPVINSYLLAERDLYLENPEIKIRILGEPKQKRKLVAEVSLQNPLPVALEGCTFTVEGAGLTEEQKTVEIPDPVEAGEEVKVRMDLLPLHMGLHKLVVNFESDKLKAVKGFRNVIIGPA

B1: hAB005: humanised AB1 antibody; heavy chain version RHA with light chain version RKJ (antibody, V domains shown)
VH: EVQLLESGGGLVQPGGSLRLSCAASGFTFSSSAMSWVRQAPGKGLEWVSTISVGGGKTYYPDSVKGRFTISRDNSKNTLYLQMNSLRAEDTAVYYCAKLISLYWGQGTLVTVSS
VL: DIQMTQSPSSLSASVGDRVTITCKASQDINSYLTWFQQKPGKAPKSLIYRTNRLFDGVPSRFSGSGSGTDFFLTISSLQPEDFATYYCLQYDDFPYTFGQGTKVEIK
B2: cDC001: chimeric DC1 antibody: murine variable regions, human IgG1 and human kappa (antibody, V domains shown)
VH: EVQLVESGGGLVKPGGSLKLSCAASGFTLSTHAMSWVRQTPEKRLEWVATISSGGRSTYYPDSVKGRFTISRDNVKNTLYLQLSSLRSEDTAVYFCARLISTYWGQGTTLTVSS
VL: DITMTQSPSSIYASLGERVTITCKASQDINSYLTWFQQKPGKSPKILIYLVNRLVDGVPSRFSGSGSGQDYALTISSLEYEDMGIYYCLQYDDFPYTFGGGTKLEIK
B3: hBB001BB: humanised BB7 antibody (heavy chain hBB001HB, light chain hBB001KB by name) (antibody, V domains shown)
VH: B1 VH with F27I, T28I, S49A, V53S, G56R, K57S, I70V, N74S, L102P
VL: B1 VL with Q3K, S46T, R50L, F55M, T69Q, D70E, F72L, D92V
B4: hAB004: humanised AB1 antibody; heavy chain version RHA with light chain version RKE (antibody, V domains shown)
VH: B1 VH
VL: B1 VL with D1E, Q3V, M4L, F36Y, S46L, L73F, A84G, Q100G, V104L

Residue numbers refer to the chain shown, from its start. A value given as a limit tells only on which side of the number the result lay.

Usually koff stands for the first-order rate constant of dissociation. Low readings indicate slow dissociation, high ones fast dissociation. A word on the kon: it is the rate constant with which the complex forms. Read a high kon as fast association.

The subject of one experiment is WI-38 cells. Kind of experiment: Scratch wound assay in WI-38 cells. Format: cell-based, human. Conditions: serum free media; Cytochalasin D 0.1 μM, R281 100 μM, Z DON 10 μM and 100 μM, Cub7402 5 μg/ml. On the procedure:
WI-38 cells (normal human lung fibroblasts ATCC cat#CCL-75) were plated in a 96 well Image Lock plate (Essen cat#4379) at 2×10^4/well in αMEM media (Life Technologies cat#32561) with 10% FBS and grown O/N to >97% confluence. Cells were washed 2× with αMEM media without serum and a scratch wound was generated using an Essen Wound Maker and the manufacturers protocol. The media was removed and replaced with 95 μl/well serum free media. Controls and test antibodies were added to the wells. The plate was placed in an Essen Incucyte and the closure of the wound was analysed using the scratch wound protocol.
Cytochalasin D was used as an assay control at 0.1 μM. R281, a small molecule non-specific transglutaminase inhibitor, was tested at 100 μM. Z DON, a peptide non reversible transglutaminase inhibitor was tested at 10 μM and 100 μM. The commercially available TG2 antibody Cub7402 (ABcam cat#ab2386) was tested at 5 μg/ml. Antibodies of the invention were tested on at least three occasions at various concentrations as indicated. In all experiments controls were Cytochalasin D at 0.1 uM and ZDON at two concentrations to show a dose dependant effect.
As for B1, the “effect on wound closure” value was “inhibited wound closure”.

Consider B2, for which the “effect on wound closure” value is reported as “inhibited wound closure”.

The target of another experiment is T1, human TG2. Kind of experiment: Fluorescence-based transglutaminase assay (dansylated lysine into N,N-dimethylated casein), human TG2. Type of experiment: biochemical. Set-up: purchased Zedira GmbH T002. The conditions noted are these: 1 nM human TG2. On the procedure:
Transglutaminase activities of purified human (Zedira) or cynomogolus monkey TG2 enzymes (Trenzyme) were measured by incorporation of dansylated lysine K×D (Zedira) into N,N-dimethylated casein (DMC, Sigma). Human or cynomogolus monkey TG2 were diluted in transamidation buffer (25 mM HEPES pH 7.4 containing 250 mM NaCl, 2 mM MgCl2, 5 mM CaCl2, 0.2 mM DTT and 0.05% v/v Pluronic F-127) to 1 nM and 10 nM respectively and mixed with various concentrations of protein-A purified murine, chimeric or humanised TG2 antibodies for 180 min at room temperature in 384-well black microtiter plates (Corning). Reactions were initiated by addition of DMC and K×D to a final concentration of 10 uM and 20 uM respectively and a final reaction volume of 30 ul, and allowed to proceed at RT for 180 min and the increase in fluorescence (RFU) (excitation at 280 nm, emission 550 nm) monitored using a Tecan Safire^2 plate reader. Data were normalised to percentage activity where % activity=(RFU test antibody−RFU low controls)/RFU high controls−RFU low controls)×100, where low controls contained all components except enzyme and high controls contained all components except antibody.
Antibody dose response curves were plotted using GraphPad prism software and fitted using a 4-parameter logistical model to return IC50 and other statistical parameters. The results are illustrated in FIGS. 29 to 33.
With B3, the “inhibition of human TG2 transamidation (in words)” value (“inhibition” for short) is “potent inhibition of TG2 activity in the low nanomolar range”.

Take B1: the “inhibition” value is “potent inhibition of TG2 activity in the low nanomolar range”.

Consider B4, for which the “inhibition” value was “potent inhibition of TG2 activity in the low nanomolar range”.

With B2, the “inhibition” value is on record as “potent inhibition of TG2 activity in the low nanomolar range”.

The next experiment concerns the target T1, human TG2. Kind of experiment: Biacore (SPR) affinity, human TG2. On the set-up: purchased Zedira GmbH T002. Type of experiment: binding. The conditions noted are these: +Ca^2+ (1 mM CaCl2 running buffer; includes rows without a Ca mark). On the procedure: (§1) Recombinant human TG2 was obtained from Zedira GmbH (cat. no.: T002). Recombinant cynomolgus monkey TG2 was obtained from Trenzyme. Surface plasmon resonance (SPR) was measured on a Biacore T200 instrument (GE Healthcare). CM5 chips (GE Healthcare cat. no.: BR-1006-68) were coated with monoclonal mouse anti-human IgG1 (Fc) (MAH) antibody (GE Healthcare cat. no.: BR-1008-39) by amine-coupling as described in the manufacturers instructions. HBS-EP+ buffer (0.01 M HEPES, 0.15 M NaCl, 3 mM EDTA, 0.05% v/v Surfactant P20) and HBS-P+ buffer (0.01 M HEPES, 0.15 M NaCl, 0.05% Surfactant P20) were purchased from GE Healthcare as 10× stocks (cat. nos.: BR-1006-69 and BR-1006-71). Calcium Chloride solution was obtained from Sigma Aldrich (cat. no.:21115).
(§2) The method employed to determine the affinity of the anti-TG2 antibodies involved the capture of the chimeric or humanised antibodies on a MAH coated CM5 chip, followed by the injection of a series of TG2 samples in running buffer. The running buffer was 1×HBS-P+ containing 1 mM CaCl2, or 1×HBS-EP+ for calcium-free experiments. Antibody capture was carried out for a contact time of 120 seconds at a flow rate of 10 μl/min resulting in the capture of approximately 40-80 RU. TG2 was injected over the immobilised antibody at concentrations ranging from 25 nM to 400 nM with a contact time up to 600 seconds at a flow rate of 30 μl/min. Dissociation of TG2 was typically measured for up to 5400 seconds (1.5 hours). Regeneration of the chip was then performed using 3 M MgCl2, for a contact time of 60 seconds at a flow rate of […], followed by a 300 s stabilisation period before the next sample. For each of human and cynomolgus monkey TG2, at least 5 injections at a variety of concentrations were performed in at least two separate experiments.
(§3) Kinetic data were exported from the Biacore T200 Evaluation Software and analysed using GraphPad Prism, where the association phases and dissociation phases were analysed separately using a one phase association model and one-phase exponential decay model respectively. Association rates (kon) were calculated for each curve individually, and dissociation rates (koff) values from the long dissociation phase data collected. Where koff values were calculated to be <1×10^−5 s^−1, values were set at 1×10^−5 for analysis, as rates slower than this could not be estimated accurately. Values for kon and koff are presented in the tables below as the mean of the individual calculated values for each antibody for each TG2 species from multiple concentrations +/−1 standard deviation. KD values are calculated as mean koff/mean kon.
Background: Surface plasmon resonance follows binding to a sensor surface in real time, without labels.
In the case of B3, the koff was <10^−5 s^−1 and the kon stood at 240000 M⁻¹ s⁻¹.

Turning to B1, the koff is <10^−5 s^−1 and the kon was 190000 M⁻¹ s⁻¹.

The molecule B4 yielded a koff of 2.4e-05 s⁻¹ and a kon of 200000 M⁻¹ s⁻¹.

B2: the koff is recorded as <10^−5 s^−1 and the kon is 320000 M⁻¹ s⁻¹.

In the next experiment the test system is Cynomolgus TG2. Kind of experiment: Biacore (SPR) affinity, cynomolgus TG2. The conditions noted are these: +Ca^2+ (1 mM CaCl2 running buffer; includes rows without a Ca mark). Format: binding, cynomolgus monkey. As for the experimental part:
as §1, §2, §3
Regarding B3, the koff came to 3.7e-05 s⁻¹ and the kon worked out at 270000 M⁻¹ s⁻¹.

Take B1: the koff is 3.4e-05 s⁻¹ and the kon turned out to be 140000 M⁻¹ s⁻¹.

Turning to B4, the koff was 1.8e-05 s⁻¹ and the kon amounted to 160000 M⁻¹ s⁻¹.

For the molecule B2, the koff is recorded as <10^−5 s^−1 and the kon was determined as 420000 M⁻¹ s⁻¹.

The target in another experiment is T1, human TG2. Kind of experiment: ELISA assay for TG2 binding, human TG2. On the set-up: purchased Zedira GmbH T002.
Details: not given
On the procedure:
Antibody binding to human and cynomolgus monkey TG2 was determined in an ELISA assay. Clear polystyrene “Maxisorp” 96-well plates (Nunc) were coated with 50 ng purified human or cynomogulus monkey TG2 in 50 μl 0.05 M carbonate-bicarbonate buffer pH 9.6 at 4° C. overnight. Control wells were coated with 50 μl 100 μg/ml bovine serum albumin (BSA). Plates were washed 3× with 300 μl phosphate-buffered saline pH7.4 (PBS) containing 0.1% Tween 20 (PBST) and blocked with 300 μl 3% w/v Marvel skimmed milk in PBS for 1 hour at room temperature. After 3× wash with PBST, 50 μl protein-A purified chimeric or humanised anti-TG2 antibodies or human IgG1 kappa isotope control antibody or CUB7402 (Abcam) were serially diluted 4-fold from a top concentration of 50 nM in PBS, and added to the plate in duplicate. […] After 3× washes with PBST, the plates were developed with 50 μl TMB substrate (Sigma) for 5 min at room temperature before stopping the reaction with 25 μl 0.5M H2SO4 and reading absorbance at 450 nm in a microtiter plate reader (BioTek EL808). Dose response curves were analysed and EC50 values and other statistical parameters determined using a 4-parameter logistical fit of the data (GraphPad Prism).
On the technique in general: In an ELISA, binding on a coated surface is turned into a signal by an enzyme label.
Take B3: the “ELISA binding to human TG2 (in words)” value is listed as “comparable EC50 values”.

Regarding B4, the “ELISA binding to human TG2 (in words)” value is reported as “comparable EC50 values”.

These data come from US10005846B2, “Anti-transglutaminase 2 antibodies” (MEDICAL RESEARCH COUNCIL TECHNOLOGY, priority 2012, dated 2018).
